Measurements taken from US20080261871A1, “Y2/Y4 Selective Receptor Agonists for Therapeutic Interventions” (priority 2004, published 2008).
No end group written: not given here.

Columns and labels:
in vivo [1] = details: dog, iv, 100 ug/kg
Protocol: (§1) At the highest dose a plasma levels of 100 nM was obtained in the dogs.

anesthetized dogs = experiment: in vivo; details: dog, iv
Protocol: as §1

mice = experiment: Acute food intake in mice after subcutaneous injection; type: in vivo; details: mice fasted 16 hours, sc
Protocol: Food and water were available ad libitum except just before experiments (see below). The mice were acclimatized to subcutaneous injections during the week before experiments started. Mice were used once each in the experiments. Just before administration the peptides were diluted in physiological saline and administered in 100 μL volume for subcutaneous administration. Results are expressed as mean +/−SE. Analysis of variance followed by Bonferroni's test were used to assess differences among groups.
A standard diet was used (CLEA Japan, Inc., Tokyo, Japan) and food intake was measured by subtracting uneaten food from the initially premeasured food after administration and checking for food spillage.

in vivo [2] = experiment: in vivo; design: species or system cyno monkeys; details: cynomolgus monkey
Excerpt: […]. […] […]. Apparently, the Y4 receptor activation—conceivably in the area postreama-prevents the emetic effect of the Y2 activation form the same compound. This property of a combined Y2-Y4 selective agonist is of great benefit for the treatment of obesity and associated conditions.

human Y2 receptor = target: T1, human Y2 receptor (human, UniProt P49146 1-381); experiment: cell-based or functional assay
T1 sequence (looked up): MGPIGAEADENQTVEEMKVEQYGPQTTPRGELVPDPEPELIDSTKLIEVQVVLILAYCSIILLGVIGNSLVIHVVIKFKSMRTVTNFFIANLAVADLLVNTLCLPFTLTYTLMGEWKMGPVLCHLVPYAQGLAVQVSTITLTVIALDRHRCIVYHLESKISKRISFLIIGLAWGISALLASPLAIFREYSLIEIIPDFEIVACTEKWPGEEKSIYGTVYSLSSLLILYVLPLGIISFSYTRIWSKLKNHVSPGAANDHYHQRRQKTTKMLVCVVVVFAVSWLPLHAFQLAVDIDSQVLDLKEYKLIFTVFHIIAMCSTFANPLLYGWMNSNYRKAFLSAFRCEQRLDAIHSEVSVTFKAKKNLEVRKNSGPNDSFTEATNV

human Y4 receptor = human Y4 receptor (human, UniProt P50391 1-375); experiment: cell-based or functional assay
Sequence of human Y4 receptor (P50391 whole entry): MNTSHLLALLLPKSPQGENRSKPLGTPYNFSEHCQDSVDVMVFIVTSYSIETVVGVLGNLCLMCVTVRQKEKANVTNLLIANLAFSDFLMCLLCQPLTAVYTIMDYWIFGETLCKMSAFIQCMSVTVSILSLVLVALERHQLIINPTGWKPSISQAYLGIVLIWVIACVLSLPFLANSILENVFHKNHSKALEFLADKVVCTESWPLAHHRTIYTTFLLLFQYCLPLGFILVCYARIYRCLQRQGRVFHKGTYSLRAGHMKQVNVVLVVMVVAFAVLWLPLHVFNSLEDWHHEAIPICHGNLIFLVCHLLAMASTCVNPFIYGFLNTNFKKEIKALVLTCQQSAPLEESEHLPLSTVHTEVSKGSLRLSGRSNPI

human Y1 receptor = target: T2, human Y1 receptor (human, UniProt P25929 1-384); experiment: cell-based or functional assay
T2 sequence (looked up): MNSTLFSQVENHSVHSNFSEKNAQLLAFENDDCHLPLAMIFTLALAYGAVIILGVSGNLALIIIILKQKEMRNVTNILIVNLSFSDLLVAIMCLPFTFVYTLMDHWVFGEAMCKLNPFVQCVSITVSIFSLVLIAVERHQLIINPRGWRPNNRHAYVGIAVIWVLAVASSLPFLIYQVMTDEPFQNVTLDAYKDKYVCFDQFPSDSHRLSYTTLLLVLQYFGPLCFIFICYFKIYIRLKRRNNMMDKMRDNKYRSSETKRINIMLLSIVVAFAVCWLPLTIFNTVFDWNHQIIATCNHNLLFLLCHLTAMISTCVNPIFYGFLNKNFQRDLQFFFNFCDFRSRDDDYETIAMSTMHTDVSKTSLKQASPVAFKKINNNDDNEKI

Molecule | level at time molar (in vivo [1]) [nM] | plasma level dose relationship (anesthetized dogs) | duration of inhibition of food intake (mice; 1 μg per animal) | inhibitory effect on food intake compared with PYY3-36 (mice; 1 and 10 μg per animal) | level at time molar (in vivo [2]) [nM] | EC50, inositol phosphate turnover (human Y2 receptor) [nM] | EC50, inositol phosphate turnover (human Y4 receptor) [nM] | EC50, inositol phosphate turnover (human Y1 receptor) [nM]
CC[C@H](C)[C@H](NC(=O)[C@H](Cc1ccc(O)cc1)NC(=O)[C@H](CCCNC(=N)N)NC(=O)[C@H](CCCNC(=N)N)NC(=O)[C@H](CC(C)C)NC(=O)[C@H](CC(=O)O)NC(=O)[C@H](C)NC(=O)[C@H](C)NC(=O)[C@H](Cc1ccc(O)cc1)NC(=O)[C@H](CCC(N)=O)NC(=O)[C@H](C)NC(=O)[C@H](CCSC)NC(=O)[C@H](CCC(N)=O)NC(=O)[C@H](CCC(=O)O)NC(=O)[C@@H]1CCCN1C(=O)[C@@H](NC(=O)[C@H](C)NC(=O)[C@H](CC(N)=O)NC(=O)[C@H](CC(=O)O)NC(=O)CNC(=O)[C@@H]1CCCN1C(=O)[C@H](Cc1ccc(O)cc1)NC(=O)[C@@H](NC(=O)[C@@H]1CCCN1C(=O)[C@H](CCC(=O)O)NC(=O)[C@H](CC(C)C)NC(=O)[C@@H]1CCCN1C(=O)[C@H](C)N)C(C)C)[C@@H](C)O)C(=O)N[C@@H](CC(N)=O)C(=O)N[C@@H](CCSC)C(=O)N[C@@H](CC(C)C)C(=O)N[C@H](C(=O)N[C@@H](CCCNC(=N)N)C(=O)N[C@@H](CCC(N)=O)C(=O)N[C@@H](CCCNC(=N)N)C(=O)N[C@@H](Cc1ccc(O)cc1)C(N)=O)[C@@H](C)O [[Gln34]PP] | 100 | linear dose relationship | more than 8 hours | more pronounced and long-lasting inhibitory effect | 12 to 13 | – | – | –
APLEPVYPGDNATPEQMAQYAADLRHYINMLTRQRY-NH2 [[His26,Gln34]PP] | – | – | – | – | – | 6.1 | 9.2 | 130
APLEPVYPGDNATPEQMAQYAADLRRYINLLTRQRY-NH2 [[Leu30,Gln34]PP] | – | – | – | – | – | 8.6 | 4.5 | 102
